Laboratory results as given in patent US20240368233A1 (University of Washington, published 2024).

What was measured:
284B [1] = molecular target: T1, 284B; assay: BLI, steady state fit
T1 construct: also called LHD284 B; LHD284 chainB
T1 chain: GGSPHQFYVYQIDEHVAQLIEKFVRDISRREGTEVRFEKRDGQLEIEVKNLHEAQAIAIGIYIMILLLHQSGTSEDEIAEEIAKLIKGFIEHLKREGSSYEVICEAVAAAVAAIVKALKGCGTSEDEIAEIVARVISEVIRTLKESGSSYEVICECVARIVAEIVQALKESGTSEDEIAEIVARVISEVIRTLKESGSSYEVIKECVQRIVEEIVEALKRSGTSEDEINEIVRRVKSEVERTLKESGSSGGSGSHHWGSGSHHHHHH
Method: (§1) Biolayer interferometry experiments were performed on an OctetRED96 BLI system (ForteBio, Menlo Park, CA). Streptavidin coated biosensors were first equilibrated for at least 10 minutes in Octet buffer (10 mM HEPES pH 7.4, 150 mM NaCl, 3 mM EDTA, 0.05% Surfactant P20) supplemented with 1 mg/ml Bovine Serum Albumin (SigmaAldrich). Enzymatically biotinylated designs were immobilized onto the biosensors by dipping the biosensors into a solution with 10-50 nM protein for 30-120 s. This was followed by dipping in fresh octet buffer to establish a baseline for 120 s. Titration experiments were performed at 25° C. while rotating at 1,000 r.p.m. Association of designs was allowed by dipping biosensors in solutions containing designed protein diluted in octet buffer until equilibrium was approached followed by dissociation by dipping the biosensors into fresh buffer solution in order to monitor the dissociation kinetics. Steady-state and global kinetic fits were performed using the manufacturer's software (Data Analysis 9.1) assuming a 1:1 binding model.

284B [2] = molecular target: T1, 284B; assay: BLI, global kinetic fit, 1:1 model
Method: as §1

275B [3] = molecular target: T2, 275B; assay: BLI, steady state fit
T2 construct: also called LHD275 B; LHD275B
T2 chain: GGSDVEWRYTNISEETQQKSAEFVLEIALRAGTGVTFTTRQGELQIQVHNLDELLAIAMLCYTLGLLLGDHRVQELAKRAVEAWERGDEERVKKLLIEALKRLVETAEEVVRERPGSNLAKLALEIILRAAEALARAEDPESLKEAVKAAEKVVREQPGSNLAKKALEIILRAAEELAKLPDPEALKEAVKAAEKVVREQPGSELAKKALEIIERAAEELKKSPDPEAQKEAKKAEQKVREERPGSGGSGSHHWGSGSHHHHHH
Method: as §1

275B [4] = molecular target: T2, 275B; assay: BLI, global kinetic fit, 1:1 model
Method: as §1

[5] = molecular target: the molecule itself; assay: SEC titration of the protomer alone at several injection concentrations (Superdex 75, normalised A230); self-association
298B [6] = molecular target: T3, 298B; assay: BLI, steady state fit
T3 construct: also called LHD298 B; LHD298 chainB
T3 chain: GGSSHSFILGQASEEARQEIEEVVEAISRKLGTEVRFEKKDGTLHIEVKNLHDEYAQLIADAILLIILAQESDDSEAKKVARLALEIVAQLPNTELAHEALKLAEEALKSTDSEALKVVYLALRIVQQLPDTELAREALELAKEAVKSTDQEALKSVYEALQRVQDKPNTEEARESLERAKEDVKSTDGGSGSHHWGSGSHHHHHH
Method: as §1

298B [7] = molecular target: T3, 298B; assay: BLI, global kinetic fit, 1:1 model
Method: as §1

[8] = molecular target: T4, LHD274 chainB, split luciferase reporter construct; assay: split luciferase association kinetics, 1 nM vs. 10 nM, in lysate
T4 construct: not shown: N-terminal Strep-tag and sfGFP; GS-linker and smBiT or lgBiT
T4 chain: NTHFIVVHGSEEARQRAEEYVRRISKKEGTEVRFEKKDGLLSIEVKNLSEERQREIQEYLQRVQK
Method: Assays were performed in 20 mM sodium phosphate, 100 mM NaCl, pH 7.4, 0.05% v/v Tween 20. Reactions were assembled in 96 well plates (Corning, cat #3686) in the presence of Nano-Glo™ substrate (Promega, cat. #N1130) diluted 100× or 500× for kinetics and endpoint measurements respectively (see supplement for detailed information). Luminescence was recorded on a Synergy Neo2 plate reader (BioTek). Kinetic assays were performed under pseudo first-order conditions, with the final concentration of one protein at 1 nM and the other at 10 nM. Dead times between substrate addition and data acquisition were typically 15-30 s. For long kinetic measurements (FIG. 11A), mastermixes of the protein complexes were made and aliquots were sampled at regular intervals. Data were fitted to a single exponential decay function: […]

317B [9] = molecular target: T5, 317B; assay: BLI, steady state fit
T5 construct: also called LHD317 B; LHD317B
T5 chain: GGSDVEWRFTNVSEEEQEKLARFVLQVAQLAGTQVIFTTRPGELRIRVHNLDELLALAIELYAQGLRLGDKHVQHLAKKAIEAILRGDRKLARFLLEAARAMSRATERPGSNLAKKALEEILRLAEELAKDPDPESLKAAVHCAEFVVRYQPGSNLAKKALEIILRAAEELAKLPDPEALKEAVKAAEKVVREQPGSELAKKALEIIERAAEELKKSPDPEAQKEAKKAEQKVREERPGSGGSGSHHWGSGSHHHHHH
Method: as §1

317B [10] = molecular target: T5, 317B; assay: BLI, global kinetic fit, 1:1 model
Method: as §1

B1: LHD284 chainA (designed binder)
chain: TDELLERLRQLFEELHERGTIIIVEVHINGERQTKYLILAPKEELKKHLERIREKIEREGSSEVEVKVTSGGTTWTFNEK
notes: also called LHD284A
Q: For B1, which Kd (284B [1]) is on record?
A: 97 nM

Q: And the Kd (284B [2])?
A: 8.9 nM

Q: What about the koff (284B [2]) of the same binder?
A: 0.0012 s⁻¹

Q: And the kon (284B [2])?
A: 130000 M⁻¹ s⁻¹

B2: LHD275 chainA (designed binder)
chain: GRQEKVLKSIEETVRKMGVEMLTFRAGNAVIVVIRGLHPEQAKQLLRDVSQTAHKQGVTVTLTFHGDVVFILVLVGASEEEQKHMQERIQELARIIHEAKRRGVSEEQLREIAEKMAKEIQEWG
notes: also called LHD275A
Q: Which results are given for B2?
A: Kd (275B [3]): 4.5 nM; Kd (275B [4]): 2.9 nM; koff (275B [4]): 0.00041 s⁻¹; kon (275B [4]): 140000 M⁻¹ s⁻¹; binding result [5]: no binding (tested: 8.0 uM)

B3: LHD298 chainA (designed binder)
chain: GRQEKVLKSIEETVRKMGVTMETHRSGNTVKVVIKGLHESQQEQLHKDVEETVQKEGVFVLVSHHGDTVTIQVYE
notes: also called LHD298A
Q: Which results are given for B3?
A: Kd (298B [6]): 16 nM; Kd (298B [7]): 3.5 nM; koff (298B [7]): 0.00022 s⁻¹; kon (298B [7]): 64000 M⁻¹ s⁻¹

B4: LHD274 chainA, split luciferase reporter construct (designed binder)
chain: TTNFHLINGSEEARQRIEEYVRRISKKEGTEVHFEKSDGTLEIRVKNLHEKREREIKEYIERVLL
notes: not shown: N-terminal Strep-tag and sfGFP; GS-linker and smBiT or lgBiT
Q: Which kobs [8] does the source give for B4 here?
A: 0.0014 s⁻¹

B5: LHD317 chainA (designed binder)
chain: GRQEKVLKSIEETVRKMGVRMLTHRGGNAVIVVIEGLHPSQAEQLLRDVHRTAKKQGVTVHLVFTGDIVVIMVVVGASEEEQEEMHRLVREIAEALHEAKRKGANEEQLEQLLRELLERAEREG
notes: also called LHD317A
Q: What does the source list for B5?
A: Kd (317B [9]): 56 nM; Kd (317B [10]): 34.7 nM; koff (317B [10]): 0.0051 s⁻¹; kon (317B [10]): 150000 M⁻¹ s⁻¹; binding result [5]: no binding (tested: 57.4 uM)
